US20240270828A1

Molecular target: SARS-CoV-2 S (SARS-CoV-2) (UniProt P0DTC2)
Assay: SPR Biacore T200, hmAb captured, S injected, 1:1 fit

Q: S2P6 (antibody) was tested. Which Kd did it give?
A: 32 nM

Q: CC40.8 (antibody) was tested. Which Kd did it give?
A: 6.69 nM

Q: With CV3-25 (antibody) as the substance, how does the Kd read?
A: 13.2 nM
